Values joined by “and” are separate entries in the source; they are usually repeats but may differ in a detail not shown here. Equal values may be shown once.
Biological target: CD3 on the Jurkat cell
Experiment: cell-based or functional assay

B1: Axl-WT×CD3-WT (bispecific antibody, part only; not given: constant regions and linkers, not shown: a dimerising Fc or GST)
heavy: EVQLVQSGAEVKKPGATVKISCKVSGYSFTGHTMNWIRQPPGKGLEWIGLIKPSNGGTSYNQKFKGRVTISADKSISTAYLQWSSLKASDTAMYYCAHGHYESYFAMDYWGQGTSVTVSS
light (part 1 of 2), part: DIQMTQSPSSLSASVGDRVTITCKASQDVSSAVAWYQQKPGQAPRLLIYWASTRHTGVPSRFSGSGSGTEFTLTISSLQPDDFATYYCQEHFSTPLTFGQGTKVEIK
light (part 2 of 2), part: QAVVTQEPSLTVSPGGTVTLTCRSSTGAVTTSNYANWVQQKPGQAPRGLIGGTNKRAPWTPARFSGSLLGGKAALTITGAQAEDEADYYCALWYSNLWVFGGGTKLTVLGEVQLVESGGGLVQPGGSLRLSCAASGFTFNTYAMNWVRQAPGKGLEWVARIRSKYNNYATYYADSVKDRFTISRDDSKNSLYLQMNSLKTEDTAVYYCVRHGNFGNSYVSWFAYWGQGTLVTVSS
- Luciferase Amount, pH 6.0, at CHO-Axl concentration (ng/mL) 0.00000: 893 RLU and 937 RLU
- Luciferase Amount, pH 6.0, at CHO-Axl concentration (ng/mL) 0.01000: 1230 RLU and 1330 RLU
- Luciferase Amount, pH 6.0, at CHO-Axl concentration (ng/mL) 0.1000: 2310 RLU and 2000 RLU
- Luciferase Amount, pH 6.0, at CHO-Axl concentration (ng/mL) 1.000: 10700 RLU and 10000 RLU
- Luciferase Amount, pH 6.0, at CHO-Axl concentration (ng/mL) 10.00: 44900 RLU and 46700 RLU
- Luciferase Amount, pH 6.0, at CHO-Axl concentration (ng/mL) 100.0: 77200 RLU and 83200 RLU
- Luciferase Amount, pH 6.0, at CHO-Axl concentration (ng/mL) 1000.0: 96200 RLU and 90400 RLU
- Luciferase Amount, pH 6.0, at CHO-Axl concentration (ng/mL) 10000.0: 100000 RLU and 102000 RLU
- Luciferase Amount, pH 7.4, at CHO-Axl concentration (ng/mL) 0.00000: 2280 RLU and 2160 RLU
- Luciferase Amount, pH 7.4, at CHO-Axl concentration (ng/mL) 0.01000: 2270 RLU and 2350 RLU
- Luciferase Amount, pH 7.4, at CHO-Axl concentration (ng/mL) 0.1000: 3930 RLU and 3970 RLU
- Luciferase Amount, pH 7.4, at CHO-Axl concentration (ng/mL) 1.000: 17700 RLU and 18400 RLU
- Luciferase Amount, pH 7.4, at CHO-Axl concentration (ng/mL) 10.00: 51800 RLU and 57100 RLU
- Luciferase Amount, pH 7.4, at CHO-Axl concentration (ng/mL) 100.0: 94100 RLU and 99200 RLU
- Luciferase Amount, pH 7.4, at CHO-Axl concentration (ng/mL) 1000.0: 113000 RLU and 112000 RLU
- Luciferase Amount, pH 7.4, at CHO-Axl concentration (ng/mL) 10000.0: 135000 RLU and 139000 RLU

Reference: patent publication US20260167724A1
